{"source": "patent US20240026037A1", "binders": {"B1": {"name": "G3A_VK1+VH1 (antibody, IgG1, V domains shown, part only)", "VH": "EVQLVESGGGLVKPGGSLRLSCAASGFAFSTYDMSWVRQAPGKGLEWVSTISSGGSYTYYADSVKGRFTISRDNAKNSLYLQMNSLRAEDTAVYYCAPTTVVPFAYWGQGTLVTVSA", "VL": "DIQMTQSPSSLSASVGDRVTITCKASQNVRTVVAWYQQKPGKAPKRLIYLASNRHTGVPSRFSGSGSGTEFTLTISNLQPEDFATYYCLQHWSYPLTFGSGTKLEVK", "modifications": "IgG1 constant regions not given"}, "B2": {"name": "G3A_VK1+VH3 (antibody, IgG1, V domains shown, part only)", "VH": "B1 VH with S49A, N74S", "VL": "B1 VL", "modifications": "IgG1 constant regions"}, "B3": {"name": "G3A_VK3+VH2 (antibody, IgG1, V domains shown, part only)", "VH": "B1 VH with S49A, A61L, N74S", "VL": "B1 VL with A13T, R46T, T56S", "modifications": "IgG1 constant regions not given"}, "B4": {"name": "G3A_VK2+VH3 (antibody, IgG1, V domains shown, part only)", "VH": "B1 VH with S49A, N74S", "VL": "B1 VL with A13T, R46T, N53S, R54L, H55Q, T56S, L78V, T85D, Y87F", "modifications": "IgG1 constant regions not given"}, "B5": {"name": "G3A_VK4+VH2 (antibody, IgG1, V domains shown, part only)", "VH": "B1 VH with S49A, A61L, N74S", "VL": "B1 VL with R46T", "modifications": "IgG1 constant regions not given"}, "B6": {"name": "G3A_VK1+VH2 (antibody, IgG1, V domains shown, part only)", "VH": "B1 VH with S49A, A61L, N74S", "VL": "B1 VL", "modifications": "IgG1 constant regions"}, "B7": {"name": "G3A_VK2+VH1 (antibody, IgG1, V domains shown, part only)", "VH": "B1 VH", "VL": "B1 VL with A13T, R46T, N53S, R54L, H55Q, T56S, L78V, T85D, Y87F", "modifications": "IgG1 constant regions not given"}, "B8": {"name": "G3A_VK2+VH2 (antibody, IgG1, V domains shown, part only)", "VH": "B1 VH with S49A, A61L, N74S", "VL": "B1 VL with A13T, R46T, N53S, R54L, H55Q, T56S, L78V, T85D, Y87F", "modifications": "IgG1 constant regions"}}, "note": "Numbering of substitutions follows the chain as printed."}
{"biological_target": "Human GPA33 on GPA33+ colorectal cancer cell lines (Colo 205, LS 174T, SW 1222) (human) (UniProt Q99795)", "sequence (Q99795 22-319 limits assumed)": "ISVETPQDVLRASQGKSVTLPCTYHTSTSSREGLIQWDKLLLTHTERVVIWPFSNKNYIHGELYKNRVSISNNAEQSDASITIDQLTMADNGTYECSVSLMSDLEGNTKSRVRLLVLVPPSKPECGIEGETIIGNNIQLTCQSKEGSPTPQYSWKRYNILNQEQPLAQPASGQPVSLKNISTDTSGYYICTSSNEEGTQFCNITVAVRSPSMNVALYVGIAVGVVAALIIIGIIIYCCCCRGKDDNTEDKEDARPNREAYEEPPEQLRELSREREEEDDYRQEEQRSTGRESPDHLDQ", "test": "cell binding to SW1222 Luc cells; IgG format", "units": {"EC50": "µg/mL"}}
{"binder": "B1", "EC50": 1.51}
{"binder": "B2", "EC50": 1.32}
{"binder": "B3", "EC50": 0.383}
{"binder": "B4", "EC50": 1.89}
{"binder": "B5", "EC50": 0.314}
{"binder": "B6", "EC50": 0.991}
{"biological_target": "Human GPA33 on GPA33+ colorectal cancer cell lines (Colo 205, LS 174T, SW 1222) (human) (UniProt Q99795)", "test": "cell binding to LS174T Luc cells; IgG format", "units": {"EC50": "µg/mL"}}
{"binder": "B1", "EC50": 1.12}
{"binder": "B2", "EC50": 1.78}
{"binder": "B3", "EC50": 0.381}
{"binder": "B5", "EC50": 0.364}
{"binder": "B7", "EC50": 1.2}
{"binder": "B6", "EC50": 0.654}
{"biological_target": "Human GPA33 (recombinant protein, Novoprotein) (human) (UniProt Q99795)", "sequence (Q99795 22-235 limits assumed)": "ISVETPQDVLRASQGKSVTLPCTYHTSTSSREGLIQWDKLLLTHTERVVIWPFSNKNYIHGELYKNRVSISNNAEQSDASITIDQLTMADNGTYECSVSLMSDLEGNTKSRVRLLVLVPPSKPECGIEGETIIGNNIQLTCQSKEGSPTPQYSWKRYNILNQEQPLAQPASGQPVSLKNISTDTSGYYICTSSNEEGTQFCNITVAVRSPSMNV", "test": "SPR (Biacore), binding to GPA33 protein; IgG format", "units": {"Kd": "nM"}}
{"binder": "B1", "Kd": 0.87}
{"binder": "B2", "Kd": 1.49}
{"binder": "B8", "Kd": 9.54}
{"binder": "B3", "Kd": 0.241}
{"binder": "B4", "Kd": 8.39}
{"binder": "B5", "Kd": 0.229}
{"binder": "B7", "Kd": 5.8}
{"binder": "B6", "Kd": 1.73}
